Source: patent US6030780, “Purified Stat proteins and methods of purifying thereof” (The Rockefeller University)

Columns and labels:
[1] = biological target: Stat1tc, phosphorylated Tyr701 (Homo sapiens) (UniProt P42224); test: EMSA
[2] = biological target: T1, Stat1alpha, phosphorylated Tyr701 (Homo sapiens, UniProt P42224 P42224:1-750); test: EMSA; binding unaffected by NEM alkylation; no difference from Stat1tc in off-rate; settings: tags: baculovirus/Sf9; NEM-alkylated; phosphorylated in vitro by EGF-receptor kinase; chain copies: 2; label: 32P; protruding 5'-TCC
Text: Figure 3A: FIG. 3A. DNA binding of purified phosphorylated Stat1α (lane 1) and Stat1tc (lane 2) using as a probe the radioactively labelled cfosWT sequence. Binding reactions contained equimolar amounts of the respective proteins. The position of migration of the free DNA probe (free) and the protein/DNA complex (bound) is indicated. Note the presence of a slower migrating band only with the full length Stat1α, lane 1 (see also FIG. 3B). Figure 3B: FIG. 3B. Influence of cysteine alkylation on the DNA binding activity of Stat1α. A mixture of phosphorylated and unphosphorylated protein (0.23 µM final; ~15% phosphoprotein) was reacted in the presence of 0.8 mM DTT and the indicated concentrations of N-ethyl-maleimide (NEM) for 20 min at room temperature in a volume of 12.5 µl. The reaction was stopped with DTT (final concentration of 10 mM) followed by the addition of 1.5 pmoles of labelled probe (cfosM67). Samples were resolved on a 4.5% native polyacrylamide gel. (M) denotes the position of bromophenol blue (lower) and xylene cyanol (upper) markers.
Electrophoretic mobility shift assays (EMSA) (Fried and Crothers, 1981; Garner and Revzin, 1981) were used to test DNA binding of tyrosine phosphorylated Stat1α and Stat1tc. […] In addition, the DNA binding ability of homodimeric phosphorylated Stat1α or its truncated form was highly resistant to up to 2 Molar monovalent salt concentrations.

[3] = biological target: T1, Stat1alpha, phosphorylated Tyr701; test: EMSA; stabilization indistinguishable from 10 bp spacing; settings: tags: baculovirus/Sf9; NEM-alkylated; phosphorylated in vitro by EGF-receptor kinase; chain copies: 2; label: 32P; protruding 5'-TCC; two tandem sites
Procedure: (§1) Under the reaction conditions described above, each oligonucleotide (at 2×10^-9 M or otherwise stated) was mixed with 0.55×10^-9 M dimer of purified phosphorylated Stat1 protein. The reaction volume was scaled up to 100 μl. The reaction was incubated for 5–15 min at room temperature and for time zero, an aliquot (10 μl) was removed and loaded directly onto a pre-run polyacrylamide gel (see above). Afterwards, a 100×molar excess of homologous unlabelled DNA (in less than 1% of the reaction volume) was added. At subsequent time points (indicated in FIGS. 5C–5D, and 7) 10 μl aliquots were withdrawn and also loaded onto the running gel (at 10 V/cm). After entering the final time point (after 30–45 min), electrophoresis was continued at 20 V/cm until the unbound labelled DNA-fraction reached the bottom of the gel. Gels were dried, exposed to X-ray film and labelled protein/DNA complexes and unbound labelled DNA were quantitated as described above. The half life was determined from a semi-log plot of the numerical data (shifted radioactivity over shifted radioactivity at time zero versus time). For many sequences studied, the half life was too short ([…]) to be determined by EMSA. All experiments were performed at least twice with the different oligonucleotides.
Figure 7B: FIG. 7B. […]

[4] = biological target: T1, Stat1alpha, phosphorylated Tyr701; test: EMSA; 2x(dimer) complex stable, >30 min for partial displacement by 100x competitor; settings: tags: baculovirus/Sf9; NEM-alkylated; phosphorylated in vitro by EGF-receptor kinase; chain copies: 2; label: 32P; protruding 5'-TCC; two tandem sites
Procedure: as §1, with “oligonucleotides. […]” for “oligonucleotides.”

[5] = biological target: Stat1beta, phosphorylated Tyr701 (Homo sapiens, UniProt P42224-2 P42224-2:1-712); test: EMSA; 2x(dimer) complex stabilized as with Stat1alpha; settings: tags: baculovirus/Sf9; NEM-alkylated; phosphorylated in vitro by EGF-receptor kinase; chain copies: 2; label: 32P; protruding 5'-TCC; two tandem sites
[6] = biological target: T1, Stat1alpha, phosphorylated Tyr701; test: EMSA; apparent Keq, dimer; 40 mM KCl, 10 mM MgCl2, 10 mM CaCl2, RT; complex half-life <0.5 min; settings: tags: baculovirus/Sf9; NEM-alkylated; phosphorylated in vitro by EGF-receptor kinase; chain copies: 2; label: 32P; protruding 5'-TCC

Chain of Stat1tc, phosphorylated Tyr701 (Homo sapiens) (P42224 whole entry): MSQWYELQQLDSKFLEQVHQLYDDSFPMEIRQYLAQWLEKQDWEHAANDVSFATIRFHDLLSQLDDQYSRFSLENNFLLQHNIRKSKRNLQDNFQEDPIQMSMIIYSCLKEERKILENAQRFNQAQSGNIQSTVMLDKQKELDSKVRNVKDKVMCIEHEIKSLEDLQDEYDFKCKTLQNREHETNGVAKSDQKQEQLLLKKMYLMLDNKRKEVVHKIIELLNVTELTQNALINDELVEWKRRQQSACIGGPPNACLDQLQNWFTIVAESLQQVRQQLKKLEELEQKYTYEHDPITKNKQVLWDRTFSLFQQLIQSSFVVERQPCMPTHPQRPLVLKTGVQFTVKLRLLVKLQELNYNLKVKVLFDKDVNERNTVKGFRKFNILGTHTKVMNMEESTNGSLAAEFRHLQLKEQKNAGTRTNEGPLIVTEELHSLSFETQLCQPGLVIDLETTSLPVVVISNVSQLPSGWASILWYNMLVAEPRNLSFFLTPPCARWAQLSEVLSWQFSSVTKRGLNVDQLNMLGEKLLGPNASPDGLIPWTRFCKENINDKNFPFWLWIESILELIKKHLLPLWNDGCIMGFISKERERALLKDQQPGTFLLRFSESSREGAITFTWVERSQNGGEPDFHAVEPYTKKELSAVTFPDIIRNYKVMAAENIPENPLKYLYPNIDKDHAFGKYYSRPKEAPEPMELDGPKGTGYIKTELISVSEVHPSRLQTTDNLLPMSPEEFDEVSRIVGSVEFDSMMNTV
T1 sequence (P42224 whole entry, one chain of several): as the sequence (P42224 whole entry) above
Chain of Stat1beta, phosphorylated Tyr701 (P42224 1-712, one chain of several): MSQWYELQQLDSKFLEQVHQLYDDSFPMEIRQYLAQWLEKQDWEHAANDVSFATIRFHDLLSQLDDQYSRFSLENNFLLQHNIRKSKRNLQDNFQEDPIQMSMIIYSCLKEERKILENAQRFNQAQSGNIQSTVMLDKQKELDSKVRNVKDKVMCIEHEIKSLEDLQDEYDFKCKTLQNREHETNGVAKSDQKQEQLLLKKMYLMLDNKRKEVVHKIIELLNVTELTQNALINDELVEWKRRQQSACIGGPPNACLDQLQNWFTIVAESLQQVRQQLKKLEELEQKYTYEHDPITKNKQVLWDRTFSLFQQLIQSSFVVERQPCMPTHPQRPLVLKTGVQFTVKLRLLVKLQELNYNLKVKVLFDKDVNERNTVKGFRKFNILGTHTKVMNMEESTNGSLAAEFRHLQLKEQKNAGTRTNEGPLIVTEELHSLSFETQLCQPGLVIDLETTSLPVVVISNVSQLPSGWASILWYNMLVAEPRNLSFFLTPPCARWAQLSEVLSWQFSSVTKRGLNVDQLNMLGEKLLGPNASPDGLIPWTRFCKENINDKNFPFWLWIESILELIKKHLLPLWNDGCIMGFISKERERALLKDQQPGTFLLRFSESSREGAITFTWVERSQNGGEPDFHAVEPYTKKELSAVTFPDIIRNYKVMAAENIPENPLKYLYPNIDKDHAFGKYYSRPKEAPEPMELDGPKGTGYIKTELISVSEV

“GTATTCCTGTAAGATCT (double strand) [Ly6E]” showed a Kd ([1]; dimer concentration at half saturation, weak site) of 1 nM.

With GTTGTTCCGGGAAAAGG (double strand) [S1] the Kd ([1]; dimer concentration at half saturation, strong site) was 1 nM.

For “GATTTCCCGTAAATCAT (double strand) [cfosM67]”, the Kd ([1]; stated as same result for several oligonucleotides, complex half-life about 3 min (FIG. 5D)) was 1 nM.

“GTATTCCCGTCAATGCA (double strand) [cfosWT]” gave a Kd ([1]; apparent Keq, dimer, 40 mM KCl, 10 mM MgCl2, 10 mM CaCl2, RT) of 1 nM.

B1: cfosM67 (dsDNA)
DNA 1: GATTTCCCGTAAATCAT
DNA 2: ATGATTTACGGGAAATC
B1: binds [2].

B2: 2x cfosWT (15 bp spacing) (dsDNA)
DNA 1: AGTCAGTTCCCGTCAATGATCGCTACAGAGTTCCCGTCAAGCA
DNA 2: TGCTTGACGGGAACTCTGTAGCGATCATTGACGGGAACTGACT
B2: binds [3].

B3: 2x cfosWT (10 bp spacing) (dsDNA)
DNA 1: AGTCAGTTCCCGTCAATGCATCAGGTTCCCGTCAATGCAT
DNA 2: ATGCATTGACGGGAACCTGATGCATTGACGGGAACTGACT
B3: binds [4]; binds [5].

B4: cfosWT (dsDNA)
DNA 1: GTATTCCCGTCAATGCA
DNA 2: TGCATTGACGGGAATAC
B4 gave a Kd [6] of ~1 nM.
